Measured values as given in patent publication US20190282663A1 (KEROS THERAPEUTICS, published 2019).

T1: Activin A (UniProt P08476 311-426)
T1 sequence (looked up): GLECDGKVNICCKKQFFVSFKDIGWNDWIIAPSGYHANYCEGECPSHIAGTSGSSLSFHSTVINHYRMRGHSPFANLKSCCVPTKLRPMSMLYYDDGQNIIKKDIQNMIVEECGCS

T2: Activin B (UniProt P09529 293-407)
T2 sequence (looked up): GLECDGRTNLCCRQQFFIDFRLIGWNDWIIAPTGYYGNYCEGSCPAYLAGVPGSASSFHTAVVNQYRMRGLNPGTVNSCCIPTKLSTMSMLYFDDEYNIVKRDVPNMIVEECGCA

B1: growth differentiation factor 11 (GDF11) (ligand, UniProt O95390 299-407, looked up)
chain: NLGLDCDEHSSESRCCRYPLTVDFEAFGWDWIIAPKRYKANYCSGQCEYMFMQKYPHTHLVQQANPRGSAGPCCTPTKMSPINMLYFNDKQQIIYGKIPGMVVDRCGCS
B2: ActRIIb (SEQ ID NO: 74) (receptor)
chain: GRGEAETRECIYYNANWELERTNQSGLERCEGEQDKRLHCYASWRNSSGTIELVKKGCWLDDFNCYDRQECVATEENPQVYFCCCEGNFCNERFTHLPEAGGPEVTYEPPPTAPT
notes: also called Human ActRIIb, extracellular portion; not shown: Carrier and linker
B3: BMP-9 (ligand, UniProt Q9UK05 320-429, looked up)
chain: SAGAGSHCQKTSLRVNFEDIGWDSWIIAPKEYEAYECKGGCFFPLADDVTPTKHAIVQTLVHLKFPTKVGKACCVPTKLSPISVLYKDDMGVPTLKYHYEGMSVAECGCR
notes: also called bone morphogenetic protein 9

Assays:
ActRIIb (SEQ ID NO: 74) = biological target: B2; test: SPR (Biacore 3000), receptor captured on chip, ligand in solution
Activin A [1] = biological target: T1, Activin A; test: SPR (Biacore 3000), receptor captured on chip by anti-mouse antibody, ligand in solution
Activin B [2] = biological target: T2, Activin B; test: as above
[3] = biological target: B1; test: as above
Activin A [4] = biological target: T1, Activin A; test: SPR (Biacore 3000), receptor captured on chip, ligand in solution
Activin B [5] = biological target: T2, Activin B; test: as above
[6] = biological target: B1; test: as above
BMP-9 = biological target: B3; test: as above

Row | Kd (ActRIIb (SEQ ID NO: 74)) | binding result (Activin A [1]) | binding result (Activin B [2]) | binding result [3] | Kd (Activin A [4]) | Kd (Activin B [5]) | Kd [6] | Kd (BMP-9) | Binder
1 | 0.115 nM | – | – | – | – | – | – | – | B1
2 | – | no binding | no binding | no binding | – | – | – | – | ActRIIb/a variant (SEQ ID NO: 149) (receptor, Engineered extracellular ActRIIb variant; also called extracellular ActRIIb variant; not shown: Carrier and linker) GRGEAETRECIFYNANWEKDRTNQSGLEPCYGDQDKRRHCFASWKNSSGTIELVKQGCWLDDINCYDRQECVAKKDSPEVYFCCCEGNFCNERFTHLPEAGGPEVTYEPPPTAPT
3 | – | – | – | – | 0.063 nM | 0.023 nM | – | – | B2
4 | – | – | – | – | 0.089 nM | 0.043 nM | 0.214 nM | 3.3 nM | ActRIIa/bmax3 variant (SEQ ID NO: 72) (receptor, not shown: Carrier and linker) GAILGRSETQECLFYNANWELERTNQTGVERCEGEKDKRLHCYATWRNISGSIEIVKKGCWLDDFNCYDRTDCVETEENPQVYFCCCEGNMCNEKFSYFPEMEVTQPTSNPVTPK
5 | 0.278 nM | – | – | – | – | – | – | – | B3
6 | – | – | – | – | 0.135 nM | 0.039 nM | 0.113 nM | 5 nM | ActRIIa/bmax2 variant (SEQ ID NO: 71) (receptor, not shown: Carrier and linker) GAILGRSETQECLFYNANWELERTNQTGVERCEGEKDKRLHCYATWRNISGSIEIVKKGCWLDDFNCYDRTDCVETEENPQVYFCCCEGNMCNEKFSYFPEMEVTQPTSNP
7 | – | – | – | – | 0.213 nM | 0.0123 nM | 0.115 nM | 10 nM | ActRIIa/bΔ9 variant (SEQ ID NO: 58) (receptor, Engineered extracellular ActRIIa variant; not shown: Fusion partner and its linker) GAILGRSETQECLFYNANWELDRTNQTGVERCEGEKDKRLHCYATWRNISGSIEIVKKGCWLDDFNCYDRTDCVETKENPQVYFCCCEGNMCNEKFSYFPEMEVTQPTS
8 | – | – | – | – | 0.17 nM | 0.104 nM | 0.222 nM | 13 to 18 nM | ActRIIa/bΔ9m2 variant (SEQ ID NO: 38) (receptor, Engineered extracellular ActRIIa variant; not shown: Fusion partner and its linker) GAILGRSETQECLFYNANWELDRTNQTGVERCEGEKDKRLHCYATWRNISGSIEIVKKGCWLDDINCYDRTDCVETKENPQVYFCCCEGNMCNEKFSYFPEMEVTQPTS
9 | – | – | – | – | 0.071 nM | 0.0725 nM | 0.117 nM | 1.2 nM | ActRIIa/bΔ9m3 variant (SEQ ID NO: 41) (receptor, Engineered extracellular ActRIIa variant; not shown: Fusion partner and its linker) GAILGRSETQECLFYNANWELDRTNQTGVERCEGEKDKRLHCFATWRNISGSIEIVKKGCWLDDFNCYDRTDCVETKENPQVYFCCCEGNMCNEKFSYFPEMEVTQPTS
10 | – | – | – | – | 0.232 nM | 0.097 nM | 0.236 nM | 5.6 nM | ActRIIa/bmax1 variant (SEQ ID NO: 70) (receptor, Engineered extracellular ActRIIa variant; not shown: Carrier and linker) GAILGRSETQECLYYNANWELERTNQTGVERCEGEQDKRLHCYATWRNISGSIEIVKKGCWLDDFNCYDRTDCVETEENPQVYFCCCEGNMCNEKFSYFPEMEVTQPTS
11 | – | – | – | – | 0.242 nM | 0.282 nM | – | 26 nM | ActRIIa/b+ variant (SEQ ID NO: 150) (receptor, not shown: Fusion partner and its linker) GAILGRSETQECLFYNANWELERTNQTGVERCEGEKDKRLHCYATWRNISGSIEIVAKGCWLDDFNCYDRTDCVETEENPQVYFCCCEGNMCNEKFSYFPEMEVTQPTS
12 | – | – | – | – | 0.31 nM | 0.088 nM | 0.114 nM | 17 nM | ActRIIa/bΔ9 min variant (SEQ ID NO: 6) (receptor, Engineered extracellular ActRIIa variant; not shown: Fusion partner and its linker) GAILGRSETQECLFYNANWELDRTNQTGVEPCEGEKDKRLHCFATWKNISGSIEIVKKGCWLDDINCYDRTDCVETKENPQVYFCCCEGNMCNEKFSYFPEMEVTQPTS
13 | – | – | – | – | 0.375 nM | 0.254 nM | 0.394 nM | 14 to 20 nM | ActRIIa/bΔ9m4 variant (SEQ ID NO: 44) (receptor, Engineered extracellular ActRIIa variant; not shown: Carrier and linker) GAILGRSETQECLFYNANWELDRTNQTGVEPCEGEKDKRLHCYATWRNISGSIEIVKKGCWLDDFNCYDRTDCVETKENPQVYFCCCEGNMCNEKFSYFPEMEVTQPTS
14 | – | – | – | – | 0.542 nM | 0.103 nM | 0.186 nM | 4 nM | ActRIIa/b variant (SEQ ID NO: 69) (receptor, Engineered extracellular ActRIIa variant; not shown: Carrier and linker) GAILGRSETQECLFYNANWELERTNQTGVERCEGEKDKRLHCYATWRNISGSIEIVKKGCWLDDFNCYDRTDCVETEENPQVYFCCCEGNMCNEKFSYFPEMEVTQPTS
